Reference: patent US20230272113A1
Residue numbers refer to the chain shown, from its start.

B1: FL-19 (scFv)
scFv: QVTLKESGPTLVKPTETLTLTCTVSGFSLSYARMGVSWIRQPPGKALEWLAQIFSNDEKSYSTSLKSRLTISKDTSKSQVVLTMTDMDPEDTATYYCARIVGYGTGWYGYFDYWGQGTQVTVSSGGGGSGGGGSGGGGSDIQMTQSPSSLSASVGDRVTITCRASQDIGDDLGWYQQKPGKAPKRLIYAASTLQSGVPFRFSGSGSGTDFTLTISSLQPEDFATYYCLQHNSYPLTFGGGTKVEIK
B2: FL-17 (scFv)
scFv: QVTLKESGPTLVKPTETLTLTCTVSGFSLSNARMGVSWIRQPPGKALEWLANIFSNDEKSYSTSLKSRLTISKGTSKSQVVLTMTNVNPVDTGTYYCARIVGYGSGWYGYFDYWGQGTLVTVSSGGGGSGGGGSGGGGSDIQMTQSPSSLSASVGDRVTITCRASQDIRNDLGWYQQKPGKAPKRLIYATSIRQSGVPSRFTGSGSGTEFTLTISGLQPEDFATYFCLQHNSFPLTFGGGTKVEIK
B3: FL-18 (scFv)
scFv: QVTLKESGPVLVKPTQTLTLTCTFSGFSLSNARMGVSWIRQPPGKALEWLAHIFSNDEKSFSTSLKNRLTISKDTSKSQVVLTMTNMDPVDTATYYCARMVGYGSGWYAYFDYWGQGTQVTVSSGGGGSGGGGSGGGGSDIQMTQSPSSLSASVGDRVTITCRASQSISSYLNWYQQKPGKAPKLLIYAASSLQSGVPSRFSGSGSGTDFTLTISSLQPEDFATYYCLQHNSYPLTFGGGTKVEIK
B4: FL-21 (scFv)
scFv: QVTLKESGPALVKPTETLTLTCTFSGFSLSNARMGVSWIRQPPGKALEWLAHIFSNDEKSYSTSLKSRLTISKDTSKSQVVLTMTNMDPVDTATYYCARIPGYGGNFYYHYYGMDVWGQGTTVTVSSGGGGSGGGGSGGGGSDIQMTQSPSSLSASVGDRVTITCRTSRGIRNDLGWYQQIPGRAPKRLIYAASTLQSGVPSRFSGSGSGTEFTLTISSLQPEDFATYYCLQHNNFPWTFGQGTKVEIK
B5: FL-22 (scFv)
scFv: QVTLKESGPVLVKPTETLTLTCTVSGFSFRNARMGVSWIRQPPGKALEWLAHIFSNDEKSYSTSLKSRLTISKDTSKSQVVLTLTNMDPVDTATYFCARMPEYSSGWSGAFDIWGQGTMVTVSSGGGGSGGGGSGGGGSDIQMTQSPSSLSASVGDRVTITCRASQGISNYLAWYQQKPGKAPKRLIYAASTLQSGVPSRFSGSGSGTEFTLTISSLQPEDFATYYCLQHNTYPWTFGQGTKVEIK
B6: FL-11 (scFv)
scFv: QVTLKESGPVLVKPTETLTLTCTLSGFSLNNAKMGVSWIRQPPGKALEWLAQIFSNGEKSYSTSLKSRLTISKDTSKGQVVLTMTNMDPVDTATYYCSRIVGYGSGWYGYFDYWGQGTLVTVSSGGGGSGGGGSGGGGSDIQMTQSPSSLSASVGDRVTITCRASQGIRNDLGWYQQKPGKAPKRLIYGASTLQSGVPSRFSGSGSGTEFTLTISSLQPEDFATYYCLQHNSYPLTFGGGTKVEIK
B7: FL-14 (scFv)
scFv: B6 scFv with V10A, K33R, G35A, A46T, Q52H, G57D, S98A, G167D, G189A
B8: FL-10 (scFv)
scFv: QVTLKESGPVLVKPTETLTLTCTVSGFSFRNARMGVSWIRQPPGKALEWLAHIFSNDEKSYSTSLKSRLTISKDTSKSQVVLTLTNMDPVDTATYFCARMPEYSSGWSGAFDIWGQGTMVTVSSGGGGSGGGGSGGGGSDIQMTQSPSSLSASVGDRVTITCRASQDIRDDLGWYQQKPGNAPKRLIYGASTLQSGVPSRFSGSGSGTEFTLTISSLQPEDFATYYCLQHNSYPLTFGGGTKVDIK
B9: FL-23 (scFv)
scFv: B5 scFv with V10A, G167D, S169G, N170Y, Y171D, A173G, T213I, T232S, Y233F
B10: FL-27 (scFv)
scFv: B8 scFv with A164T, D167G, D170N, G173V, N181K, G189A, Y226F, N231Y, D244E
B11: FL-28 (scFv)
scFv: B8 scFv with D167G, R169G, K178I, N181K, G189A, A190T, T192V, D244E
B12: FL-25 (scFv)
scFv: B8 scFv with V10A, N181K, G189A, S202T, S204G, Y233F, L235F, D244E
B13: FL-26 (scFv)
scFv: B8 scFv with D167G, D170N, G173V, N181K, A190T, D244E
B14: FL-15 (scFv)
scFv: QVTLKESGPALVKPTETLTLTCTLSGFSLNNARMAVSWIRQPPGKTLEWLAHIFSNDEKSYSTSLKSRLTISKDTSKGQVVLTMTNMDPVDTATYYCARIVGYGSGWYGYFDYWGQGTLVTVSSGGGGSGGGGSGGGGSDIQMTQSPSSLSASVGDRVTITCRASQDIGNDLGWYQQKPGKAPKRLIYAASSLQSGVPSRFSGSGSGTEFTLTISSLQPEDFATYYCLQHNSYPLTFGGGTKVEIK
B15: FL-16 (scFv)
scFv: B14 scFv with A10V, L24V, N30R, G78S, L150V, G169R, N170Y, G173A, S232F
B16: FL-20 (scFv)
scFv: B14 scFv with G78S, V90E, S105T, Y110F, T118I, D167G, G169R, G173A
B17: FL-9 (scFv)
scFv: QVTLKESGPTLVKPTETLTLTCTVSGFSLSNARMGVSWIRQPPGKALEWLAHIFSNDEKSYSTSLKSRLTISKDTSKSQVVLTMTNMDPVDTATYYCARIPGYGGNFYYHYYGMDVWGQGTTVTVSSGGGGSGGGGSGGGGSDIQMTQSPSSLSASVGDRVTITCRASQGIRNDLAWYQQKPGKAPKRLIYAASTVQSGVPSRFSGSGSGTEFALTISSLQPEDFATYYCLQHNSFPWTFGQGTKVDIK
B18: FL-12 (scFv)
scFv: QVTLKESGPALVKPTETLTLTCTVSGFSLSNARMGVSWIRQPPGKALEWLANIFSNDEKSYSTSLKSRLTISKGTSKSQVVLTMTNMDPEDTATYYCARIVGYGSGWYGYFDYWGQGTLVTVSSGGGGSGGGGSGGGGSDIQMTQSPSSLSASVGDRVTITCRASQGIRNDLGWYQQKPGKAPQRLIYAASSLQSGVPSRFSGSGSGTEFTLTISSLQPEDFATYYCLQHNSYPLTFGGGTKVEIK
B19: FL-13 (scFv)
scFv: QVTLKESGPTLVKPTETLTLTCTLSGFSLNNARMGVSWIRQPPGKALEWLAHIFSNDEKSYSTSLKNRLTISKDSSKTQVVLTMTNVDPVDTATYYCARIVGYGSGWYGFFDYWGQGTLVTVSSGGGGSGGGGSGGGGSDIQMTQSPSSLSASVGDRVTITCRASQGIRNDLGWYQQKPGKAPKRLIYAASTLQSGVPSRFSGSGSGTEFTLTISSLQPEDFATYYCLQHNSYPLTFGGGTKVEIK
B20: FL-24 (scFv)
scFv: QVTLKESGPALVKPTETLTLTCTVSGFSLRNVRMGVSWIRQPPGKALEWLAHIFSNDEKSYSTSLKSRLTISKDTSKSQVVLILTNMDPVDTATYFCARMPEYSSGWSGAFDIWGQGTMVTVSSGGGGSGGGGSGGGGSDIQMTQSPSSLSASVGDRVTITCRASQDIRDDLVWYQQKPGKAPKRLIYAASTLQSGVPSRFSGSGSGTEFTLTISSLQPEDFATYYCLQHHSYPWTFGQGTKVEIK

What follows are binders tested against human FLT3 on transfected CHO cells (human) (UniProt P36888) (assay: FACS, scFv on CHO-human FLT3 cells pre-incubated with FLT3 ligand (competitor)).

Row | median [+ligand]/median [w/o ligand]*100 [%] | Binder
1 | > 75 | B1
2 | > 75 | B2
3 | > 75 | B3
4 | > 75 | B4
5 | > 75 | B5
6 | > 75 | B6
7 | > 75 | B7
8 | > 75 | B8
9 | > 75 | B9
10 | > 75 | B10
11 | > 75 | B11
12 | > 75 | B12
13 | > 75 | B13
14 | > 75 | B14
15 | > 75 | B15
16 | > 75 | B16
17 | > 75 | B17
18 | > 75 | B18
19 | > 75 | B19
20 | > 75 | B20
